Values of other authors, collected in publication PMC8175380.

Experiments:
MDM2 (Homo sapiens) = MDM2 (Homo sapiens) (UniProt Q00987); test: SPR
EED (Homo sapiens) = EED (Homo sapiens) (UniProt O75530); test: ITC
EED (Homo sapiens), sequence (O75530 2-441): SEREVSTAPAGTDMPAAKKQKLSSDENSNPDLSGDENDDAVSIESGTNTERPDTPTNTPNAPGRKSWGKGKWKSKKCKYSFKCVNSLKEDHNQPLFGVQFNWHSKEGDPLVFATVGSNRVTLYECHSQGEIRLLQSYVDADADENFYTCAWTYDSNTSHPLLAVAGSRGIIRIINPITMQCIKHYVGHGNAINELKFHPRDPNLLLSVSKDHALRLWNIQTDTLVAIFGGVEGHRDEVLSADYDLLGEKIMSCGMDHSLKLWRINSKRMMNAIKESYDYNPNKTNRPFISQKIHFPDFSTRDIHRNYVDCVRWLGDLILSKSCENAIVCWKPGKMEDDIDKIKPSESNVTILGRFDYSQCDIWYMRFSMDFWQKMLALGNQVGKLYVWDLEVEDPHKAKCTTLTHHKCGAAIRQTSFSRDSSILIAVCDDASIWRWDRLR

MDM2 (Homo sapiens), sequence (Q00987 whole entry): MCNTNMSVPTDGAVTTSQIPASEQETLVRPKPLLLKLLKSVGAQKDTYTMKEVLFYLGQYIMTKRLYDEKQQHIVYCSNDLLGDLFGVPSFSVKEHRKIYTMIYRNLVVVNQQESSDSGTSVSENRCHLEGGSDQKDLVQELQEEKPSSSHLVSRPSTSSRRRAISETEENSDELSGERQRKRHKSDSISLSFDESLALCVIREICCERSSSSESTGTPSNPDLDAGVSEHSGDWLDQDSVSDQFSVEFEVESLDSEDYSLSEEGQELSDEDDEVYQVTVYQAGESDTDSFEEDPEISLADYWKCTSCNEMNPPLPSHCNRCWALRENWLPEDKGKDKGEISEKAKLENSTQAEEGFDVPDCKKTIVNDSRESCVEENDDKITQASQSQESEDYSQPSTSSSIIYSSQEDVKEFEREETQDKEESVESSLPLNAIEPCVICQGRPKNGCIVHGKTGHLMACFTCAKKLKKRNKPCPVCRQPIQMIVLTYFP
EZH2 peptide aptamer, sequence (Q15910 whole entry): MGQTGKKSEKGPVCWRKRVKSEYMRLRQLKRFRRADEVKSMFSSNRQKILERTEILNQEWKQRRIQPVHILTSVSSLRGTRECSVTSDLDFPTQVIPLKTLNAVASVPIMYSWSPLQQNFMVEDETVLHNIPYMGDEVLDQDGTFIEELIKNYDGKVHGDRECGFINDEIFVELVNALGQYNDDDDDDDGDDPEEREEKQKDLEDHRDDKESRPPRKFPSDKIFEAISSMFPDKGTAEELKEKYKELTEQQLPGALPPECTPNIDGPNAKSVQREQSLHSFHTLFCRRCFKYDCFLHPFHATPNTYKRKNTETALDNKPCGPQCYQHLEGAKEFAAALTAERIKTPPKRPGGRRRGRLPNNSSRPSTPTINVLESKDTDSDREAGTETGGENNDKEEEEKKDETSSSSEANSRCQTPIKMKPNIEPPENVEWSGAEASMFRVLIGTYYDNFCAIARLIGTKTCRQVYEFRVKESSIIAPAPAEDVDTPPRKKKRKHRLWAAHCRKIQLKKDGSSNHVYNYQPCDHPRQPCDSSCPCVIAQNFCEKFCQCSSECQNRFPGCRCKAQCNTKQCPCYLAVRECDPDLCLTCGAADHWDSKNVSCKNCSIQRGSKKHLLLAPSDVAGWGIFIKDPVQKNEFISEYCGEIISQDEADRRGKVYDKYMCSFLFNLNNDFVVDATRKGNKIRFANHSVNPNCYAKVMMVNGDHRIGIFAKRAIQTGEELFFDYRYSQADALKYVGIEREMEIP

Kd (MDM2 (Homo sapiens)) [nM]	Kd (EED (Homo sapiens)) [nM]	Substance
140		p53 peptide aptamer (from UniProt P04637)
	380	EZH2 peptide aptamer (from UniProt Q15910)
